Target: Drosophila Eggless/SetDB1 tandem Tudor domains (3TD, aa 444-700), wild type (Drosophila) (UniProt Q32KD2)
Assay: SPR

Chain of UniProt Q32KD2 (Q32KD2 444-700): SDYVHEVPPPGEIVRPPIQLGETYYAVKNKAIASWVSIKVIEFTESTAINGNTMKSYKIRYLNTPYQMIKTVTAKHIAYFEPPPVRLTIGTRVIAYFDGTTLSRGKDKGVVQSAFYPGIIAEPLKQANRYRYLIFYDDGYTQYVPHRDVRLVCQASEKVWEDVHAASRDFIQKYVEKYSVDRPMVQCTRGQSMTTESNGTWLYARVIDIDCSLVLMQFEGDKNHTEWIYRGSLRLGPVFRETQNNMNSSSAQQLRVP

Kd: 486 µM
Substance: H3K14ac peptide

— article doi:10.1101/2023.12.10.570967
